Reference: patent publication US20240343803A1 (SHANDONG SIMCERE BIOPHARMACEUTICAL, published 2024)

Assays:
[1] = biological target: T1, human TIGIT ECD-hFc (fusion protein of extracellular domain of human TIGIT and human IgG1 Fc fragment) (human); experiment: ELISA
T1 construct: entry includes the signal peptide, limits not readable here

[2] = biological target: T2, cynomolgus monkey TIGIT ECD-hFc (extracellular domain of cynomolgus monkey TIGIT and human IgG1 Fc fragment) (cynomolgus monkey); experiment: ELISA
T2 construct: entry includes the signal peptide, limits not readable here; also called cynomolgus monkey TIGIT-hFc

[3] = biological target: T3, full-length cynomolgus monkey TIGIT on CHO-K1 cells (CHO-K1 cynomolgus monkey TIGIT) (cynomolgus monkey); experiment: cell ELISA
T3 construct: NCBI XP_015300911.1; also called cynomolgus monkey TIGIT cells
Experimental: (§1) After discarding the culture supernatant, the cells were fixed with a cell fixation solution (Beyotime, CAT #P0098), 50 μL/well, at room temperature for 1 hour. After washing once with 0.05% Tween 20-PBS on the Microplate Washer, the plate was added with 5% skim milk powder-PBS, 250 μL/well, and incubated at 37° C. for 2-4 hours. After washing 3 times with 0.05% Tween 20-PBS on the Microplate Washer, the plate was added with purified mouse monoclonal antibodies (diluted to 13 nM with 1% BSA, diluted by 3 fold serial dilution for 12 concentration points), 50 µL/well, incubated at 37° C. for 1.5-2 hours. […] After washing 3 times with 0.05% Tween 20-PBS on the Microplate Washer, the plate was added with TMB chromogenic solution (KPL, CAT #52-00-03), 50 μL/well, and incubated at 37° C. for 10 minutes. 1M HCL, 50 μL/well, was then added into the plate to terminate the reaction, and the OD450 nm was read by a microplate reader (Biotek, Powerwave HT). […] (c) The effect of anti-TIGIT mouse monoclonal antibodies blocking the interaction between Bio-CD155-His and CHO-K1 human TIGIT detected by FACS

[4] = biological target: T4, human TIGIT ECD-his (fusion protein of extracellular domain of human TIGIT and His-tag) (human); experiment: BIAcore kinetics
T4 construct: entry includes the signal peptide, limits not readable here
T4 chain: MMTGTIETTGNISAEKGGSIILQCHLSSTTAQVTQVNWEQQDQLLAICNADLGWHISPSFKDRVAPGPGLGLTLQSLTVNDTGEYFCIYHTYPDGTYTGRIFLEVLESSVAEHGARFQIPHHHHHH

[5] = biological target: T5, full-length human TIGIT on CHO-K1 cells (CHO-K1 human TIGIT) (human, UniProt Q495A1 22-244); experiment: cell ELISA, low expression strain
T5 construct: NCBI XP_024309156.1; entry includes the signal peptide; also called high expression strain 1D2; medium expression strain 2D10
T5 sequence: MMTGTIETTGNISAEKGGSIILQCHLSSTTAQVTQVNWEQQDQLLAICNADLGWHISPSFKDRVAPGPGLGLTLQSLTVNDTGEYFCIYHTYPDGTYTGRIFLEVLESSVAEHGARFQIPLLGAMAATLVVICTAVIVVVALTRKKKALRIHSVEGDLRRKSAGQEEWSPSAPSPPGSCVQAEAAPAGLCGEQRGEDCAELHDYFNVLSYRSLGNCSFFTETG
Experimental: as §1

[6] = biological target: T5, full-length human TIGIT on CHO-K1 cells …; experiment: cell ELISA, high expression strain
Experimental: as §1

[7] = biological target: T5, full-length human TIGIT on CHO-K1 cells …; experiment: cell ELISA, medium expression strain
Experimental: as §1

[8] = biological target: T5, full-length human TIGIT on CHO-K1 cells …; experiment: FACS, competition: Bio-CD155-His to CHO-K1 human TIGIT
Experimental: The collected cells were washed once with PBS (Hyclone, CAT #SH30256), resuspended to 2×10⁵/40 μL with 1% BSA-PBS. The antibodies were diluted to 210 nM with 1% BSA-PBS (diluted by 3-fold serial dilution for 12 concentration points). […] The 40 μL cells were then mixed with 40 μL diluted antibodies and 40 μL diluted Bio-CD155-His, and then incubated at 4° C. for 60 minutes. The cells were washed twice with PBS, resuspended with APC labeled streptavidin (dilution ratio 1:1700, Biolegend, 405243), 100 μL/well, and incubated at 4° C. for 40 minutes. The cell samples were washed twice with PBS, resuspended with 1% BSA-PBS, 100 μL/well and then analyzed by flow cytometry (BD, Canto II). […] (d) The effect of anti-TIGIT mouse monoclonal antibodies blocking the interaction between human TIGIT and CHO-K1 CD155 detected by ELISA

[9] = biological target: T1, human TIGIT ECD-hFc (fusion protein of …); experiment: cell ELISA, competition: hTIGIT ECD-hFc to CHO-K1 CD155
Experimental: After discarding the culture supernatant, the cells were fixed with a cell fixation solution (Beyotime, CAT #P0098), 50 μL/well, at room temperature for 1 hour. After washing once with 0.05% Tween 20-PBS on the Microplate Washer, the plate was added with 5% skim milk powder-PBS, 250 μL/well, and incubated at 37° C. for 2-4 hours. The plate was then washed 3 times with 0.05% Tween 20-PBS on the Microplate Washer. The mouse monoclonal antibodies were mixed with human TIGIT ECD-hFc (working concentration: 30 ng/mL) and incubated for 0.5 hour. The mixed solution of antigen and antibody was added to the cell plate (50 μL/well). The cells were incubated at 37° C. for 1.5-2 hours and then washed with 0.05% Tween 20-PBS for 3 times on the Microplate Washer. The cell plate was then added with 50 μL/well HRP enzyme-labeled antibodies (Merck, CAT #AP113P) diluted with 1% BSA (Sangon Biotech, CAT #A500023-0100)-PBS at a dilution ratio of 1:5000 and incubated at 37° C. for 1 hour. After washing 3 times with 0.05% Tween 20-PBS on the Microplate Washer, the plate was added with TMB chromogenic solution (KPL, CAT #52-00-03), 50 μL/well, and incubated at 37° C. for 10 minutes. 1M HCL, 50 μL/well, was then added into the plate to terminate the reaction, and the OD450 nm was read by a microplate reader (Biotek, Powerwave HT).

B1: TIGIT-F2-002 (antibody, V domains shown)
VH: EVQLQESGPGLAKPSQTLSLACSVTGYSITSDSWNWIRKFPGNKLEYMGYISYSGNTYYNPSLKSRISITRDTSKNQFYLQLNSVTTEDTATYYCARLDFSNYGGAVDYWGQGTSVTVSS
VL: DIVMTQSHTFMSTSVGDRVSITCKASQNVRTAVAWYQQKPGQSPKLMIYSASYRYTGVPDRFTGSGSGTDFTFTISSVQAEDLAVYYCQQYYTTPWTFGGGAKLEIQ
notes: mouse hybridoma antibody; variable domains are those printed for the chimeric TIGIT-CHI-002 built from the mouse antibody; tie rests on the number 002 only; also called mouse antibody TIGIT-002
[1]
  EC50: 0.0171 nM
[2]
  EC50: 0.017 nM
[3]
  EC50: 0.11 nM
[4]
  Kd: 0.0476 nM
  koff: 8.08e-05 s⁻¹
  kon: 1.7e+06 M⁻¹ s⁻¹
[5]
  EC50: 0.273 nM
[6]
  EC50: 0.312 nM
[7]
  EC50: 0.316 nM
[8]
  IC50: 0.204 nM
[9]
  IC50: 0.141 nM

B2: TIGIT-F2-005 (antibody, V domains shown)
VH: QVQLQQSGAELVRPGTSVKVSCKASGYAFTNYLIEWVKQRPGQGLEWIGVINPGSGGTNYKEKFKGKATLTADKSSSTAYMQLSSLTSEDSAVYFCARGEYFFFDYWGQGTTLTVSS
VL: DIVMTQSHKFMSTSVGDRVSITCKASQHVSNGVAWYQHKPGQSPKLLIYSASYRYTGVPDRFTGTGSGTDFTFTISSVQAEDLAVYYCQQHYNTPHTFGGGTKLEIK
notes: mouse hybridoma antibody; variable domains as printed for TIGIT-CHI-005; tie rests on the number 005 only; also called mouse antibody TIGIT-005
[1]
  EC50: 0.015 nM
[2]
  EC50: 0.0147 nM
[3]
  EC50: 0.0778 nM
[4]
  Kd: 0.0333 nM
  koff: 4.47e-05 s⁻¹
  kon: 1.34e+06 M⁻¹ s⁻¹
[5]
  EC50: 0.231 nM
[6]
  EC50: 0.388 nM
[7]
  EC50: 0.386 nM
[8]
  IC50: 0.174 nM
[9]
  IC50: 0.133 nM

B3: TIGIT-F5-070 (antibody, V domains shown)
VH: QVQLQQPGTELVKPGASVKLSCRASGYTFTNYYMHWVKQRPGRGLEWIGRIDPDSGGSKYNEKFKSKATLTVDKLSSTAYMQLSSLTSEDSAVYYCAREGHYGFYSDYWGQGTTLTVSS
VL: DIQMTQSPASLSASVGETVTITCRVSENIYSYLAWYQQKQGKSPQLLVYNAKTLAEGVPSRFSGSGSGTQFSLKINSLQPEDFGNYYCQHHYGNPLTFGAGTKLDLK
notes: mouse hybridoma antibody; variable domains as printed for TIGIT-CHI-070; tie rests on the number 070 only; also called mouse antibody TIGIT-070
[1]
  EC50: 0.0039 nM
[2]
  EC50: 0.0043 nM
[3]
  EC50: 0.0274 nM
[4]
  Kd: 0.155 nM
  koff: 0.000117 s⁻¹
  kon: 755000 M⁻¹ s⁻¹
[5]
  EC50: 0.375 nM
[6]
  EC50: 0.613 nM
[7]
  EC50: 0.664 nM
[8]
  IC50: 0.34 nM
[9]
  IC50: 0.136 nM

B4: TIGIT-F2-006 (antibody, V domains shown)
VH: EVQLQESGPGLAKPSQTPSLTCSVTGYSMTSDYWNWIRKFPGNKLEYMGYISYSGRTYYNPSLKSRISITRDTSKNQFYLQLNSVTTEDTATYYCARGDYSNYGGAMYDWGQGTSVTVSS
VL: DIVMTQSHKFMSTSVGDRVSITCRASQGVSTTIAWYQQKPGQSPKLLIYSASYRYTGVPDRFTGSGSGTDFTFTISGVQAEDLAVYYCQQYYSSPFTFGGGTKLEIK
notes: mouse hybridoma antibody; variable domains as printed for TIGIT-CHI-006; tie rests on the number 006 only; also called mouse antibody TIGIT-006
[1]
  EC50: 0.0208 nM
[2]
  EC50: 0.0327 nM
[3]
  EC50: 0.0616 nM
[4]
  Kd: 0.0414 nM
  koff: 3.32e-05 s⁻¹
  kon: 800000 M⁻¹ s⁻¹
[5]
  EC50: 0.32 nM
[6]
  EC50: 0.48 nM
[7]
  EC50: 0.54 nM
[8]
  IC50: 0.215 nM
[9]
  IC50: 0.15 nM

B5: RG6058-mIgG2a (antibody, V domains shown)
VH: EVQLQQSGPGLVKPSQTLSLTCAISGDSVSSNSAAWNWIRQSPSRGLEWLGKTYYRFKWYSDYAVSVKGRITINPDTSKNQFSLQLNSVTPEDTAVFYCTRESTTYDLLAGPFDYWGQGTLVTVSS
VL: not shown
notes: mouse IgG2a format by its name; also called Roche RG6058; control antibody RG6058
[1]
  EC50: 0.0108 nM
[2]
  EC50: 0.0152 nM
[3]
  EC50: 0.0791 nM
[4]
  Kd: 0.211 nM
  koff: 0.000141 s⁻¹
  kon: 669000 M⁻¹ s⁻¹
[5]
  EC50: 0.672 nM
[6]
  EC50: 1.05 nM
[7]
  EC50: 0.984 nM
[8]
  IC50: 0.449 nM
[9]
  IC50: 0.212 nM
